Values quoted from earlier work, collected in paper PMC4492699.
pKd: −log10 of the molar value.

Biological target: HER2 (Homo sapiens) (UniProt P04626)

In the case of trastuzumab, the pKd is given as 10.00.
